Where “and” joins values, the source holds several entries; their conditions need not be identical. Identical values can stand only once. Like-named read-outs stand apart in the source and are kept apart here. Marks after values point to notes of the source that are not given here.
Key:
[1] = assay type: biochemical, Petromyces albertensis; details: for Residual ochratoxin A (%): 5 ppm Ochratoxin A, 37° C., relative to incubation without enzyme
Description: The enzymes purified in Example 18 were tested for their ability to degrade the mycotoxin Ochratoxin A. In general, the mycotoxin was incubated with different concentrations of the enzyme, and the remaining mycotoxin concentration, as well the respective degradation products, were monitored by LC-MS over time (where possible/applicable).
Reactions were performed in 1 mL volumes in glass HPLC vials comprising the mycotoxin to be analyzed and the enzyme to be tested. For Ochratoxin A (Petromyces albertensis, 01877 Sigma), 50 μL of a 100 ppm stock solution in methanol (final concentration of 5 ppm) was added to 910 μL of distilled water and 40 μL of the enzyme to be tested. In control reactions, the volume of enzyme was substituted with distilled water. The reactions were incubated in an Eppendorf thermomixer at 37° C. with shaking at 750 rpm. 100 μL samples were withdrawn at 1, 4 and 24 h for chromatographic analysis.
Mycotoxin analysis was carried out using a Shimadzu LCMS-2020 equipped with a UV/vis detector. Chromatographic separation of 10 μL injected sample was carried out at 30° C. on a Kinetex 2.6 μm XB-C18 column 100 Å (50×2.1 mm) using a binary gradient. For Ochratoxin A, eluent A consisted of water and eluent B consisted of acetonitrile and the UV detection wavelength was 360 nm.
The five enzymes tested were screened for their ability to degrade 5 ppm (5,000 ppb) Ochratoxin A at 37° C.

[2] = Enzymatic activity in the presence of organic solvents; assay type: biochemical; details: buffer only = 100%
Description: Enzyme activity in various organic solvents was studied over a concentration range of 1-30% at room temperature. pNP-palmitate was completely dissolved in 2-propanol (8 mM) and then added to 50 mM Tris/HCl buffer pH 8.0 containing up to 30% organic solvent to give a final substrate concentration of 0.8 mM. The reaction was started by addition of enzyme and the formation of pNP was assayed as described above in Example 20.1.

[3] = Stability in the presence of hydrogen peroxide; assay type: physicochemical
Description: Esterase activity was determined by monitoring the formation of para-nitrophenol (pNP) at 410 nm from various pNP-esters using a Beckman UV spectrophotometer (model DU 640). Substrates were completely dissolved in 2-propanol (8 mM) and were then added to 50 mM Tris/HCl buffer pH 8.0 to give a final substrate concentration of 0.8 mM. The reaction (1 mL) was started by adding an appropriate amount of enzyme. One enzyme unit (U) was defined as the amount of enzyme that produced 1 μmol of product (pNP) per min; specific activity was expressed as U/mg protein. A molar extinction coefficient of 15 mM^−1 cm^−1 was used for the calculation.
Purified cutinases were incubated at room temperature in the presence of 0, 30, 100, 300, 1500, and 3000 ppm of hydrogen peroxide. Residual enzyme activity was assayed (see Example 20.1) after 1, 2, 3, and 7 days of incubation.

pH dependence of enzymes = assay type: biochemical; details: for Relative activity (%): highest activity = 100%
Description: The influence of different pH values (from 5.5 to 11) on the activities of the purified enzymes was examined in three buffer systems (sodium acetate, sodium phosphate, and Tris-HCl) at room temperature using pNP-palmitate (see esterase assay in Example 20.1) as a substrate at a final substrate concentration of 0.8 mM.

[4] = Circular dichroism spectroscopy, melting temperature and refolding; assay type: physicochemical
Description: CD spectra were recorded using a Jasco™ J-815 spectrometer operating with the Spectra™ Manager software. Temperature was controlled using a Jasco™ PFD-452S peltier unit. Previously purified protein solutions were adjusted to 0.15 mg/mL (if quantities allowed for) and CD spectra were recorded between 190 and 250 nm using a Quartz cuvette (ID=0.1 cm). Blanks containing buffer only were prepared and used as baseline. Temperature dependent protein unfolding was monitored at 222 nm with thermo profiles ranging from 20 up to 90° C. (2° C. min-1). Samples were kept for 5 min at the respective maximum temperature and protein refolding was monitored using the same conditions as above reversing the thermo profiles. Thermodynamic parameters (Tm, ΔH, ΔS, ΔG) for the folding/unfolding process, if applicable, were calculated using the Spectra™ Manager software.

[5] = Activity of crude culture supernatants from bioreactor; assay type: biochemical; details: pNP-dodecanoate
Temperature optimum = assay type: biochemical; details: for Relative activity at temperature: highest activity set to 100%
Description: For estimation of the temperature optimum, buffer containing pNP-palmitate (see esterase assay in Example 20.1) was pre-incubated to reach the desired temperature, enzyme was then added, and the formation of pNP was assayed. For this experiment, Tris/HCl buffer was replaced with sodium phosphate buffer (50 mM, pH 8.0) to avoid a pH shift at the different temperatures.

B1: CfCUT: mature wild-type cutinase from Cellulomonas flavigena, SEQ ID NO: 28 (protein, listed as Cellulomonas flavigena)
chain: APACPDVELVFARGTGEAAGLGIVGRPLERALAAELPGRTVVATAVDYAASSSQASAGPGSGDMVAKVRSRAAACPGTQFVLGGYSQGATVTDLALGIRTGVTAGTALPEDLAARVAAVVVYGNPLGLTRRTIAQAAPAFATRTVEYCNAGDPVCEPGGGRFTAHITYATNGTVLEGARFAAARVTAPAPTPTPGPTGTPAPVPSAEPTPAPGDTCVTASSLQHVRDGRAYPLWMRTYARGSGDPLGVLSSRTVVSLQADGTDTWRKVAAC
- Residual ochratoxin A (%) ([1]; 1 h): 11%
- Residual ochratoxin A (%) ([1]; 4 h): 2%
- Residual ochratoxin A (%) ([1]; 24 h): 0%
- Ochratoxin A Degradation per U and h ([1]; per 1 U of enzyme (pNP standard test) and hour at 37° C.): 3 µmol
- Relative enzymatic activity (%) ([2]; 2-Propanol 5% (v/v)): 70 ± 3%
- Relative enzymatic activity (%) ([2]; 2-Propanol 10% (v/v)): 17 ± 8%
- Relative enzymatic activity (%) ([2]; Acetone 1% (v/v)): 92 ± 9%
- Relative enzymatic activity (%) ([2]; Acetone 5% (v/v)): 95 ± 1%
- Relative enzymatic activity (%) ([2]; Acetone 10% (v/v)): 52 ± 5%
- Relative enzymatic activity (%) ([2]; Dimethyl sulfoxide (DMSO) 10% (v/v)): 105 ± 11%
- Relative enzymatic activity (%) ([2]; Dimethyl sulfoxide (DMSO) 20% (v/v)): 107 ± 1%
- Relative enzymatic activity (%) ([2]; Dimethyl sulfoxide (DMSO) 30% (v/v)): 57 ± 15%
- Relative enzymatic activity (%) ([2]; Dimethylformamide (DMF) 5% (v/v)): 101 ± 17%
- Relative enzymatic activity (%) ([2]; Methanol 10% (v/v)): 115 ± 11%
- Relative enzymatic activity (%) ([2]; Methanol 20% (v/v)): 62 ± 3%
- Relative activity (%) after exposure to hydrogen peroxide ([3]; H2O2 30 ppm, Day 0): 101 ± 22%
- Relative activity (%) after exposure to hydrogen peroxide ([3]; H2O2 30 ppm, Day 1): 89 ± 8%
- Relative activity (%) after exposure to hydrogen peroxide ([3]; H2O2 30 ppm, Day 2): 82 ± 8%
- Relative activity (%) after exposure to hydrogen peroxide ([3]; H2O2 30 ppm, Day 3): 76 ± 6%
- Relative activity (%) after exposure to hydrogen peroxide ([3]; H2O2 30 ppm, Day 7): 72 ± 7%
- Relative activity (%) after exposure to hydrogen peroxide ([3]; H2O2 100 ppm, Day 0): 92 ± 5%
- Relative activity (%) after exposure to hydrogen peroxide ([3]; H2O2 100 ppm, Day 1): 114 ± 15%
- Relative activity (%) after exposure to hydrogen peroxide ([3]; H2O2 100 ppm, Day 2): 118 ± 15%
- Relative activity (%) after exposure to hydrogen peroxide ([3]; H2O2 100 ppm, Day 3): 92 ± 11%
- Relative activity (%) after exposure to hydrogen peroxide ([3]; H2O2 100 ppm, Day 7): 94 ± 7%
- Relative activity (%) after exposure to hydrogen peroxide ([3]; H2O2 300 ppm, Day 0): 93 ± 12%
- Relative activity (%) after exposure to hydrogen peroxide ([3]; H2O2 300 ppm, Day 1): 106 ± 20%
- Relative activity (%) after exposure to hydrogen peroxide ([3]; H2O2 300 ppm, Day 2): 118 ± 12%
- Relative activity (%) after exposure to hydrogen peroxide ([3]; H2O2 300 ppm, Day 3): 102 ± 14%
- Relative activity (%) after exposure to hydrogen peroxide ([3]; H2O2 300 ppm, Day 7): 106 ± 13%
- Relative activity (%) after exposure to hydrogen peroxide ([3]; H2O2 1,500 ppm, Day 0): 126 ± 1%
- Relative activity (%) after exposure to hydrogen peroxide ([3]; H2O2 1,500 ppm, Day 1): 106 ± 12%
- Relative activity (%) after exposure to hydrogen peroxide ([3]; H2O2 1,500 ppm, Day 2): 109 ± 2%
- Relative activity (%) after exposure to hydrogen peroxide ([3]; H2O2 1,500 ppm, Day 3): 95 ± 4%
- Relative activity (%) after exposure to hydrogen peroxide ([3]; H2O2 1,500 ppm, Day 7): 54 ± 16%
- Relative activity (%) after exposure to hydrogen peroxide ([3]; H2O2 3,000 ppm, Day 0): 128% and 128 ± 18%
- Relative activity (%) after exposure to hydrogen peroxide ([3]; H2O2 3,000 ppm, Day 1): 115 ± 2%
- Relative activity (%) after exposure to hydrogen peroxide ([3]; H2O2 3,000 ppm, Day 2): 99 ± 23%
- Relative activity (%) after exposure to hydrogen peroxide ([3]; H2O2 3,000 ppm, Day 3): 60 ± 6%
- Relative activity (%) after exposure to hydrogen peroxide ([3]; H2O2 3,000 ppm, Day 7): 35% and 35 ± 1%
- pH opt. (pH dependence of enzymes): 9.5
- Relative activity (%) (pH dependence of enzymes; pH 6.5, sodium phosphate buffer): 13 ± 2%
- Relative activity (%) (pH dependence of enzymes; pH 7.0, sodium phosphate buffer): 40 ± 4%
- Relative activity (%) (pH dependence of enzymes; pH 7.5, sodium phosphate buffer): 65 ± 5%
- Relative activity (%) (pH dependence of enzymes; pH 8.0, Tris/HCl): 62 ± 2%
- Relative activity (%) (pH dependence of enzymes; pH 8.5, Tris/HCl): 85 ± 6%
- Relative activity (%) (pH dependence of enzymes; pH 9.0, Tris/HCl): 93 ± 9%
- Relative activity (%) (pH dependence of enzymes; pH 9.5, Tris/HCl): 100* %
- Relative activity (%) (pH dependence of enzymes; pH 10, Tris/HCl): 31 ± 1%
- refolding ([4]; CD at 222 nm): did not show any refolding
- melting temperature (Tm) ([4]; CD at 222 nm, unfolding): 65.2 °C
- Tm (° C.) ([4]; estimated using CD-spectroscopy): 65 ± 1 °C
- activity of crude culture supernatant [5]: 0.5 U/mL
- Temp. opt. (° C.) (Temperature optimum): 25 °C
- Relative activity at temperature (Temperature optimum; 20 ° C.): 69 ± 2%
- Relative activity at temperature (Temperature optimum; 25 ° C.): 100* %
- Relative activity at temperature (Temperature optimum; 30 ° C.): 63 ± 7%
- Relative activity at temperature (Temperature optimum; 35 ° C.): 45 ± 5%
- Relative activity at temperature (Temperature optimum; 40 ° C.): 38 ± 8%
- Relative activity at temperature (Temperature optimum; 45 ° C.): 1%

Reference: patent US10227575B2, “Multi-domain enzymes having cutinase activity, compositions comprising same and uses thereof” (OZYMES, priority 2015, dated 2019)
